According to the domain aggregation screens of Martell et al. (2025):

Assay: soluble fraction after stress (log2 fold change); higher = more stays soluble; pooled small domains, quantitative proteomics
Conditions: stress: pH 4
Summary of the method: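 Aggregation propensity is read out as the fold change in how much of each domain remains soluble after acid stress. The custom small-domain libraries were pooled, held at pH 4 and analysed with high-throughput quantitative proteomics. On the log2 scale used, higher values mean more of the domain stayed soluble.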

Sequence	soluble fraction (log2)
HMPTMVAQINEIVQAKLPGSGLKDYTIRLVESQRDGVVVWVNGTRYLGVDEVAEPQVQALLKEAVAEWERS	-0.942
HMLERPLFTPEQYGRFRGKEARIRLSNPVEGRKTLTGSIVEATEERIVVFVEEEEREVTVPFQWIKSGNL	-0.523
HMTSVFQNSDGTWGHLTKTVNPLIYTIEYGRRTGFSSREEAEESYQRSLTSYQDQLSKLKKERD	0.223
HMGAQPLIEPLSERELEVLALIAEGLTNAEIGRRLFIATGTVKRHVNTIYGKLDVHGRIEAIARARDLHLI	-0.66
HMEEQELQLIQFPIASGSAWAGKAVRELILPPETLLVMLIRGTETMIPKGDTMVQEGDTAVLSASAYRDD	-1.61
HMVKLQATPSQRKTLDELYVQLKKLEPTAKEDLSLLRRLENSHLVSKQEAQGLISKAIGRVGALAVEQQP	0.0541
HMKPTVKVPNVVNLSLRNAQIQLQNYGLEVGSISYESSRFKNAVLRQSISEGSVVEKGTTINLVISDGL	0.178
HMADTPQAYIRQMVQEAGADGIMLSTITDRLRARFKDFKVRDLGYAQMRQYMASTGTYDLEKSGRNFRVHL	0.181
HMDLATQHAAKVNAAILAARRFEREGSWRQVAAKYSEALQLMPGNEQASRGYQQAMAMLDERD	0.41
HMSLEEQNGAKDRQVEAYELLLKAQRALDQEDTAGFQAAMKDLEPLSSQLDAQGQTLYHELLPFVS	-0.246
HMNEKAALIFNEWSDFVSKDDEANAQIKFDELITLYKKTGYTKIALLEVATKQASNGDIEGALAKYSLLID	-0.919
HMDTITDSYTLEKGKLRAKVMEYELPESKKKEYSATFEYRGVYYHMIGIIEKADFEEILKNLHFP	-0.53
HMEKLPRYILPGVPKVKSINISSALDGLVQDYSREFNISQKDIFQIALVEFFKKYGYHNAVKAVL	0.0067
HMKGILVPASSIISDGDKNYVWTVEKGKAKKVEVTLGNADAENQEISSGLTKDSKVITNPTDSLKDGQEV	0.269
HMNNTIKFSVDENNSGKRLDVYLTENINHLTRSFLKKLIEKEQVKLNKKVLTSPATKVKTKDQITINIIE	-0.26
HMQASISVDEAKSIALNYAKFTADQVVYTKSELDYDDGRAEYEIEFYAGGKEYSFTIDAVSGTVLEMEI	0.107
HMGKINEIVANNIAILRKKNRLSLEELGKLSGVSKSMLALIEKGDGNPTLGILWKIANGLGVPFDELTRRP	0.0455
HMSRYLLPYAFARTQQVLLEEKSGELTLWMHSGSNLGGISEVTRKYAVQHVTHEPMDALLNRISSAYAN	-2.03
HMWNKGETKIPTQAQNELIKRRQAGATWTSLSEWLKATYGIDIHRTNIQRWYDKEVYLDQEN	-0.556

Sequence	soluble fraction (log2)
HMLTPSRVLPYLFEDSFFIDTLSLEKDQVVGFLEYIDERLPPQDLMNKSKEFELIDYLINESEAYLSQ	-0.311
HMNPGAYQVKAGEGLIGLSRRYNVPVDVLASVNNLNTTSSLRVGQTITIPTAAQVNRITQQAQ	0.254
HMDDNRSLSDLAQQVFKRENIQVSRDTLSLLVSRLGSDRAVSRQEIEKLALFAGSNGKLTEEDIHNALG	-0.195
HMNESEALIARIENLPPIEDLTEKHAEEVKALMTVYSKLKMSDRILVTNYGVLKKDFDALVKKGFLTNED	0.0976
HMENLFPDYTMQDYRIVRSELSSKFKVQTVPVTTATATENKIVRQEPEAGSRITEGMTVILYYSIGPE	0.0963
HMEKAISSLTLEEAKKRLEMVRSEKDASLQIYKETGSETARVTAENYGKEENSLLLHISEMSNIV	-0.209
HMQGEVVTNRSVIDMSRAGLSADIIRAKILRSDTNFDVTAKALIELKESGVPDDIIALMLERADS	-0.218
HMDSDELEAFRLITSVNGVGPKLGIAILSEFTAEKLTVFIASGDAKALTAASGVGIKLAQRIVLELKDKVG	-0.184
HMGDKVLIQTAQRLKKDLPFASIVSRFGGDEFLIFLPGISSTERVETIVKKTVFLFIAISTTLF	-0.0999
HMQRSVNYSELHEIKERVFDALYSSPMSMPDLLAWLKGDEEHTISVIRLMQDNGDIEMGEDGRLAVV	-0.629
HMKTFSTRLIALREAIGVNQSELARRVGVTPQAVQKWESGANGPRGKRLEKLASELRSTVGYLVSGEGDG	0.0382
HMYAHLGKNLEVVINKALAQEDPEKKAGFAHHIAYYMKLAYSNWHKELVHDDAIRSELDTITGGELEFSN	-0.0696
HMKPPTIELSYSEFIELVERGKVSKVIFSSDNYTLKGETVNGENFETVRPPFLEDNLSEILTIHKVPVSSE	-0.785
HMGIFAQTTKWRDIYTVKKKDTIFGIANKYGLSLPELMEANPEMKQEGYMLQKGTTLFIPFASD	-0.0354
HMGLVQQSAQKSDDAAKLMAANNLNAAQSKYQLPDEAEKDFFTFAFERGYAVEDFVDAGLVDKIMADFSA	-0.44
HMDSGFMRTTQSYTVARLAEIFRLSGEDYLAVLREYDGWYQDLTSTKDLIRKGSDVPVPEGV	-1.02
HMRNERDRQLYAAMEKLKAEYREALYLVYFENMSYRDAAAVMAQTEKQISNLVYRGKQSLKTILEQEGF	-0.867
HMDGEINPYTGREYVTNSVRMHPRRIGYVQVYSRKDHKWTDMTEWAFLGEQERKKVLLGKAYEPPVYL	0.0599
